Starred links: 1 amine or outer side, 2 acyl side, 3 side chain; linkers in the order of their positions; H or OH if unused. Non-standard residues stand in square brackets, D forms with d. Primed or numbered codes have the meaning given here. *: point of attachment. C20 diacid = O=C(O)CCCCCCCCCCCCCCCCCCC(=O)*; C18 diacid = O=C(O)CCCCCCCCCCCCCCCCC(=O)*; γGlu = O=C(O)[C@H](CCC(=O)[*:2])N[*:1]; βAsp = O=C(O)[C@H](CC(=O)[*:2])N[*:1]; Hyp = O=C(O)[C@@H]1C[C@@H](O)CN1; Inp′ = not defined here; Trx′ = not defined here; AEEA = NCCOCCOCC(=O)O
Target: T1, human amylin receptor on CHO-K1/Ga15/AMY3 cells (amylin receptor/CRE-luc cell line) (human) (UniProt P30988)
T1 sequence (looked up) 1: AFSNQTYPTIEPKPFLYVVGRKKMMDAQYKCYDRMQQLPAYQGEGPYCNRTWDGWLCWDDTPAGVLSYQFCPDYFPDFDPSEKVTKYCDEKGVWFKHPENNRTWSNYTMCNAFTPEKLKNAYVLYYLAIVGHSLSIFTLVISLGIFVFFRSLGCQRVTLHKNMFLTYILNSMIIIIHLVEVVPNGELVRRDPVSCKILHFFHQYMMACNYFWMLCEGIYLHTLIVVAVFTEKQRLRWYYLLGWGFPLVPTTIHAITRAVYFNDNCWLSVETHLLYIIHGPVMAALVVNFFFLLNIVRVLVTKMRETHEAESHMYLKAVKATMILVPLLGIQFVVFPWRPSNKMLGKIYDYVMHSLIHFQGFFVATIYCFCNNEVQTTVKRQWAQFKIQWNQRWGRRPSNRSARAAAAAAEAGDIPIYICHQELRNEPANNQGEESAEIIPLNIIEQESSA
T1 sequence (looked up) 2: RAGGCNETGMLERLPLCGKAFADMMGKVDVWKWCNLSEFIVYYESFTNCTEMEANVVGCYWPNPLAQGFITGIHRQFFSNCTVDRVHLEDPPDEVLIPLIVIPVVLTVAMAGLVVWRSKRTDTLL
Test: cell-based or functional assay

B1: M32 (peptide)
peptide: {C20 diacid}-E[AEEA][AEEA]ASQLSTAATQRLADFLRHSSNNLKPILPPTNVGSNT[Hyp]-NH2
SMILES: CC[C@H](C)[C@H](NC(=O)[C@@H]1CCCN1C(=O)[C@H](CCCCN)NC(=O)[C@H](CC(C)C)NC(=O)[C@H](CC(N)=O)NC(=O)[C@H](CC(N)=O)NC(=O)[C@H](CO)NC(=O)[C@H](CO)NC(=O)[C@H](Cc1c[nH]cn1)NC(=O)[C@H](CCCNC(=N)N)NC(=O)[C@H](CC(C)C)NC(=O)[C@H](Cc1ccccc1)NC(=O)[C@H](CC(=O)O)NC(=O)[C@H](C)NC(=O)[C@H](CC(C)C)NC(=O)[C@H](CCCNC(=N)N)NC(=O)[C@H](CCC(N)=O)NC(=O)[C@@H](NC(=O)[C@H](C)NC(=O)[C@H](C)NC(=O)[C@@H](NC(=O)[C@H](CO)NC(=O)[C@H](CC(C)C)NC(=O)[C@H](CCC(N)=O)NC(=O)[C@H](CO)NC(=O)[C@H](C)NC(=O)COCCOCCNC(=O)COCCOCCNC(=O)[C@H](CCC(=O)O)NC(=O)CCCCCCCCCCCCCCCCCCC(=O)O)[C@@H](C)O)[C@@H](C)O)C(=O)N[C@@H](CC(C)C)C(=O)N1CCC[C@H]1C(=O)N1CCC[C@H]1C(=O)N[C@H](C(=O)N[C@@H](CC(N)=O)C(=O)N[C@H](C(=O)NCC(=O)N[C@@H](CO)C(=O)N[C@@H](CC(N)=O)C(=O)N[C@H](C(=O)N1C[C@H](O)C[C@H]1C(N)=O)[C@@H](C)O)C(C)C)[C@@H](C)O
- EC50 (luciferase assay, amylin receptor/CRE-luc CHO cells): 115 pM
- Relative activity (the EC50 ratio of Cagrilintide to the compound): 44%

B2: M33 (peptide)
peptide: {C20 diacid-βAsp-AEEA-AEEA}-ASQLSTAATQRLADFLRHSSNNLKPILPPTNVGSNT[Hyp]-NH2
SMILES: CC[C@H](C)[C@H](NC(=O)[C@@H]1CCCN1C(=O)[C@H](CCCCN)NC(=O)[C@H](CC(C)C)NC(=O)[C@H](CC(N)=O)NC(=O)[C@H](CC(N)=O)NC(=O)[C@H](CO)NC(=O)[C@H](CO)NC(=O)[C@H](Cc1c[nH]cn1)NC(=O)[C@H](CCCNC(=N)N)NC(=O)[C@H](CC(C)C)NC(=O)[C@H](Cc1ccccc1)NC(=O)[C@H](CC(=O)O)NC(=O)[C@H](C)NC(=O)[C@H](CC(C)C)NC(=O)[C@H](CCCNC(=N)N)NC(=O)[C@H](CCC(N)=O)NC(=O)[C@@H](NC(=O)[C@H](C)NC(=O)[C@H](C)NC(=O)[C@@H](NC(=O)[C@H](CO)NC(=O)[C@H](CC(C)C)NC(=O)[C@H](CCC(N)=O)NC(=O)[C@H](CO)NC(=O)[C@H](C)NC(=O)COCCOCCNC(=O)COCCOCCNC(=O)C[C@H](NC(=O)CCCCCCCCCCCCCCCCCCC(=O)O)C(=O)O)[C@@H](C)O)[C@@H](C)O)C(=O)N[C@@H](CC(C)C)C(=O)N1CCC[C@H]1C(=O)N1CCC[C@H]1C(=O)N[C@H](C(=O)N[C@@H](CC(N)=O)C(=O)N[C@H](C(=O)NCC(=O)N[C@@H](CO)C(=O)N[C@@H](CC(N)=O)C(=O)N[C@H](C(=O)N1C[C@H](O)C[C@H]1C(N)=O)[C@@H](C)O)C(C)C)[C@@H](C)O
- EC50 (luciferase assay, amylin receptor/CRE-luc CHO cells): 145 pM
- Relative activity (the EC50 ratio of Cagrilintide to the compound): 37%

B3: M34 (peptide)
peptide: {C20 diacid}-D[AEEA][AEEA]ASQLSTAATQRLADFLRHSSNNLKPILPPTNVGSNT[Hyp]-NH2
SMILES: CC[C@H](C)[C@H](NC(=O)[C@@H]1CCCN1C(=O)[C@H](CCCCN)NC(=O)[C@H](CC(C)C)NC(=O)[C@H](CC(N)=O)NC(=O)[C@H](CC(N)=O)NC(=O)[C@H](CO)NC(=O)[C@H](CO)NC(=O)[C@H](Cc1c[nH]cn1)NC(=O)[C@H](CCCNC(=N)N)NC(=O)[C@H](CC(C)C)NC(=O)[C@H](Cc1ccccc1)NC(=O)[C@H](CC(=O)O)NC(=O)[C@H](C)NC(=O)[C@H](CC(C)C)NC(=O)[C@H](CCCNC(=N)N)NC(=O)[C@H](CCC(N)=O)NC(=O)[C@@H](NC(=O)[C@H](C)NC(=O)[C@H](C)NC(=O)[C@@H](NC(=O)[C@H](CO)NC(=O)[C@H](CC(C)C)NC(=O)[C@H](CCC(N)=O)NC(=O)[C@H](CO)NC(=O)[C@H](C)NC(=O)COCCOCCNC(=O)COCCOCCNC(=O)[C@H](CC(=O)O)NC(=O)CCCCCCCCCCCCCCCCCCC(=O)O)[C@@H](C)O)[C@@H](C)O)C(=O)N[C@@H](CC(C)C)C(=O)N1CCC[C@H]1C(=O)N1CCC[C@H]1C(=O)N[C@H](C(=O)N[C@@H](CC(N)=O)C(=O)N[C@H](C(=O)NCC(=O)N[C@@H](CO)C(=O)N[C@@H](CC(N)=O)C(=O)N[C@H](C(=O)N1C[C@H](O)C[C@H]1C(N)=O)[C@@H](C)O)C(C)C)[C@@H](C)O
- EC50 (luciferase assay, amylin receptor/CRE-luc CHO cells): 132 pM
- Relative activity (the EC50 ratio of Cagrilintide to the compound): 40%

B4: M37 (peptide)
peptide: {C18 diacid-γGlu}-ASQLSTAATQRLADFLRHSSNNLKPILPPTNVGSNT[Hyp]-NH2
SMILES: CC[C@H](C)[C@H](NC(=O)[C@@H]1CCCN1C(=O)[C@H](CCCCN)NC(=O)[C@H](CC(C)C)NC(=O)[C@H](CC(N)=O)NC(=O)[C@H](CC(N)=O)NC(=O)[C@H](CO)NC(=O)[C@H](CO)NC(=O)[C@H](Cc1c[nH]cn1)NC(=O)[C@H](CCCNC(=N)N)NC(=O)[C@H](CC(C)C)NC(=O)[C@H](Cc1ccccc1)NC(=O)[C@H](CC(=O)O)NC(=O)[C@H](C)NC(=O)[C@H](CC(C)C)NC(=O)[C@H](CCCNC(=N)N)NC(=O)[C@H](CCC(N)=O)NC(=O)[C@@H](NC(=O)[C@H](C)NC(=O)[C@H](C)NC(=O)[C@@H](NC(=O)[C@H](CO)NC(=O)[C@H](CC(C)C)NC(=O)[C@H](CCC(N)=O)NC(=O)[C@H](CO)NC(=O)[C@H](C)NC(=O)CC[C@H](NC(=O)CCCCCCCCCCCCCCCCC(=O)O)C(=O)O)[C@@H](C)O)[C@@H](C)O)C(=O)N[C@@H](CC(C)C)C(=O)N1CCC[C@H]1C(=O)N1CCC[C@H]1C(=O)N[C@H](C(=O)N[C@@H](CC(N)=O)C(=O)N[C@H](C(=O)NCC(=O)N[C@@H](CO)C(=O)N[C@@H](CC(N)=O)C(=O)N[C@H](C(=O)N1C[C@H](O)C[C@H]1C(N)=O)[C@@H](C)O)C(C)C)[C@@H](C)O
- EC50 (luciferase assay, amylin receptor/CRE-luc CHO cells): 30 pM
- Relative activity (the EC50 ratio of Cagrilintide to the compound): 184%

Binder: {C20 diacid-Inp′-AEEA-AEEA}-ASQLSTAATQRLADFLRHSSNNLKPILPPTNVGSNT[Hyp]-NH2 [M36]
- EC50 (luciferase assay, amylin receptor/CRE-luc CHO cells): 59 pM
- Relative activity (the EC50 ratio of Cagrilintide to the compound): 91%

Binder: {C20 diacid-Trx′-AEEA-AEEA}-ASQLSTAATQRLADFLRHSSNNLKPILPPTNVGSNT[Hyp]-NH2 (reading uncertain) [M35]
- EC50 (luciferase assay, amylin receptor/CRE-luc CHO cells): 43 pM
- Relative activity (the EC50 ratio of Cagrilintide to the compound): 124%

Reference: patent US20260265329A1, “POLYPEPTIDE AND DERIVATIVE THEREOF, COMPOSITION, AND USE THEREOF” (HANGZHOU SCIWIND BIOSCIENCES CO., LTD., priority 2023, published 2026)
